Assay results reported in PMC4989188, “Identification and characterization of chromosomal relBE toxin-antitoxin locus in Streptomyces cattleya DSM46488” (Scientific Reports, 2016).

Molecular target: T1, RelE2sca-His6 toxin (SCATT_39270) of Streptomyces cattleya DSM 46488 (Streptomyces cattleya DSM 46488, UniProt F8K3H9 1-87)
T1 construct: also called toxin RelE2sca; not shown: His6, N-terminal, kept
T1 sequence (looked up): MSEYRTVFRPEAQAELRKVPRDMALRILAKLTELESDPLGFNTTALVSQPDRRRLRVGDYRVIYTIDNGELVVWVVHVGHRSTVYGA
Test: SEC
Details: both partners purified

B1: RelB2sca antitoxin (SCATT_39280) of Streptomyces cattleya DSM 46488 (natural protein, UniProt G8WSR4 1-89, looked up)
chain: MTQPLPMESIRDVRAHLAEVVERADRDDVPTVITRRGKQVAAVVSIEVLRKYQEWEEREINRIIDERMANPTPGVPIEDIMRETLARSE
notes: Untagged in the co-purification; Copies 2 are those in the 2:2 complex with RelE2sca-His6; In the functional row the protein was expressed from pBAD-relB2sca-relEeco in E. coli MGJ5987; also called antitoxin RelB2sca; RelBsca; source: E. coli BL21(DE3), co-expressed with RelE2sca-His6 from pACYC-relB2sca-relE2scahis, co-purified on NTA-Ni resin
- stoichiometry N: 1 RelB2sca per RelE2sca-His6 (printed as 2:2)
